Assays:
[1] = Robotic thermostability screen of LucPpl mutants: decrease of activity over 10 hours at screening temperature; format: physicochemical; conditions: 47° C., third cycle of random mutagenesis
Procedure: “Enzyme stability” was determined by the rate of activity loss from cell lysates over 10 hours. In successive rounds of evolution the incubation temperature of the lysates was increased.
To prepare luciferases having certain performance, a method for in vitro evolution of enzyme function, as described above, was employed. Briefly described, the method is a recursive process of generating random mutations and screening for desirable properties. It was originally developed primarily to increase the thermostability of luciferases, although other enzymological characteristics are also subject to optimization by the screening criteria. A slightly different strategy was used to achieve the properties described above since two related luciferases needed to be optimized concomitantly.
The luciferases from P. plagiophthalamus have 13 cysteines, which are potentially sensitive to oxidation. This is in contrast to the commonly used firefly luciferase, which has only 4 cysteines. To remove any cysteines that may limit enzyme stability, oligonucleotide-directed mutagenesis was used to randomize the cysteine codons. Three sets of oligonucleotides were used: non-conserved cysteines in regions of low sequence homology (positions 69, 114, 160, 194, 335, and 460), non-conserved cysteines in regions of higher sequence homology (positions 127, 213, 310, and 311), and highly conserved cysteines (positions 60, 80, and 388). […]
The random mutagenesis process was repeated using the best clone from the previous cycle of mutagenesis (Luc53-0G01). […] The discrepancy in measured activity of Luc53-0G01 in this cycle of mutagenesis compared to the previous cycle may be due to changes in the assay procedure and recalibration of the incubator temperature. It should be noted that the recorded thermostabilities from each stage of mutagenesis are calculated from robotic data using abbreviated assay procedures. The data are intended to indicate the relative stabilities of enzyme mutants when assayed in the same screen, rather than providing an accurate quantitation of thermostability.

[2] = Luminescence signal intensity and signal stability in vitro of LucPpl luciferases; format: biochemical; conditions: lysate with 1% Triton X-100
Description: For luminescence assays requiring only a few second, the wild-type yellow-green-emitting luciferase produces a very stable signal (the initial rise in the signal evident in the first 2 seconds is due to the response time of the luminometer, not the kinetics of the luminescence reaction). However, the signal intensity was reduced about 30% by the presence of 1% Triton X-100 in the lysate (diluted 1:5 with the addition of assay reagent). In contrast, the luminescence intensity of the mutant luciferases was unaffected by the presence of Triton X-100. […] However, the data are not corrected for the efficiency of enzyme expression in E. coli. Thus, differences in luminescence intensity may not correlate to changes in enzyme specific activity, nor is the expression efficiency in E. coli necessarily relevant to expression in mammalian cells.
For batches of assays requiring more than an hour to process, the signal stability of the yellow-green-emitting luciferase is inadequate under the conditions tested. […] Attempts to correct this by the in vitro evolution yielded mixed results. The signal stability of all three mutant enzymes was generally much improved over the parent yellow-green enzyme for three hours after substrate addition. However, this was accompanied by a greater initial decrease in luminescence during the first half-hour. […]

colonies of E. coli = assay: Luminescence of E. coli colonies expressing LucPpl luciferases at room temperature and on heating; format: cell-based; conditions: room temperature
Procedure: From colonies of E. coli expressing the luciferases, Luc81-5F01 and Luc81-6G01 produced luminescence most rapidly at room temperature upon addition of luciferin. The luminescence was more rapid and brighter than colonies expressing the wild-type green- and yellow-green-emitting luciferases. The luminescence from all the selected colonies appeared green-shifted compared to the yellow-green parent clone. […] Some of the mutant clones loose their luminescence at 65° C., but the three preferred clones remain bright above 70° C. No spectral changes upon heating the colonies were evident until above 70° C., where those clones still retaining activity began to red-shift slightly (sometime, the initial phases of enzyme denaturation are accompanied by a red shift in the luminescence). The luminescence characteristics of the three preferred mutants are quite similar.

B1: Luc81-6G01: LucPplYG mutant luciferase, SEQ ID NO:26 (protein)
chain: MMKREKNVIYGPEPLHPLEDLTAGEMLFRALRKHSHLPQALVDVVGDESLSYKEFFEATVLLAQSLHNCGYKMNDVVSICAENNTRFFIPVIAAWYIGMIVAPVNESYIPDELCKVMGISKPQIVFTTKNILNKVLEVQSRTNFIKRIIILDTVENIHGCESLPNGISRYSDGNIANFKPLHFDPVEQVAAILCSSGTTGLPKGVMQTHQNICVRLIHALDPRAGTQLIPGVTVLVYLPFFHAFGFSITLGYFMVGLRVIMFRRFDQEAFLKAIQDYEVRSVINVPSVILFLSKSPLVDKYDLSSLRELCCGAAPLAKEVAEVAAKRLNLPGIRCGFGLTESTSANIHSLRDEFKSGSLGRVTPLMAAKIADRETGKALGPNQVGELCIKGPMVSKGYVNNVEATKEAIDDDGWLHSGDFGYYDEDEHFYVVDRYKELIKYKGSQVAPAELEEILLKNPCIRDVAVVGIPDLEAGELPSAFVVKQPGKEITAKEVYDYLAERVSHTKYLRGGVRFVDSIPRNVTGKITRKELLKQLLEKAGG
modifications: Mutant luciferase
[1]
  decrease of activity: 100 fold
[2]
  stability of luminescence signal in assays of a few seconds: most stable signal
Colonies of E. coli
  onset of luminescence in E. coli colonies upon addition of luciferin: most rapidly

— patent US8030017B2, “Thermostable luciferases and methods of production” (Promega Corporation, priority 1997, dated 2011)
